Results on 15 sequences are retold here after a protein production outcome set (Wang et al. 2014).

The nature of the series: label from the status in PepcDB records.
Regarding “MSLSLWQQCLARLQDELPATEFSMWIRPLQAELSDNTLALYAPNRFVLDWVRDKYLNNINVLLNDFCGMDAPLLRFEVGSKPLVQTISQPAQSHHNPVSVARQQPVRMAPVRPSWDNSPVQAEHTYRSNVNPKHTFDNFVEGKSNQLARAAARQVADNPGGAYNPLFLYGGTGLGKTHLLHAVGNGIIARKPNAKVVYMHSERFVQDMVKALQNNAIEEFKRYYRSVDALLIDDIQFFANKERSQEEFFHTFNALLEGNQQIILTSDRYPKEINGVEDRLKSRFGWGLTVAIEPPELETRVAILMKKADENDIRLPGEVAFFIAKRLRSNVRELEGALNRVIANANFTGRSITIDFVREALRDLLALQEKLVTIDNIQKTVAEYYKIKIADLLSKRRSRSVARPRQMAMALAKELTNHSLPEIGDAFGGRDHTTVLHACRKIEQLREESHDIKEDFSNLIRTLSSLEHHHHHH”, the protein production result was “not failed”.
As for “MSLSNGELAILVFGYPETMANQVIAYFQEFGTILEDFEVLRKPQAMTVGLQDRQFVPIFSGNSWTKITYDNPASAVDALLENGAVFNGVLLGVIPYTKDAVERLQKRKLTSSEDIGSGITTAAAEGHHHHHH”, the protein production entry is “not failed”.
Take “MSLSNVFYRSSKPYPVAVRGEGVFLYDDAGRRYLDGSSGALVANIGHGRAEVGERMAAQAARLPFVHGSQFSSDVLEEYAGRLARFVGLPTFRFWAVSGGSEATESAVKLARQYHVERGEPGRFKVITRVPSYHGASLGSLAASGMGARRELYTPLMRPEAWPKLPKPDPARNGAEDAEGLRALLEREGPETVAAFMAEPVVGASDAALAPAPGYYERVRDICDEAGIIFIADEVMSGMGRCGSPLALSRWSGVTPDIAVLGKGLAAGYAPLAGLLAAPQVYETVMGGSGAFMHGFTYAGHPVSVAAGLSVLDIVEREDLTGAAKERGAQLLAGLQALQARFPQMMQVRGTGLLLGVVLGDLATGQAFETPGIASRIGAAALKRGLITYPGSGAEPNGRGDHLLLGPPLSITAAEVDGLLALLAGALEDVLGEGHHHHHH”: the protein production entry is reported as “not failed”.
Take “MSLSPDLLLAFALFALVTSITPGPNNTMLLASGVNFGFNRSIPHILGISCGFFVLVLAVGLGLGAVFEAYPLLYSVLRYVGAVYLLYLAWKIARSGPLSDEQQHHGRPLGYWGAAAFQWVNPKAWVMAVGAISTYTPLQGYFTNVLVIAAVFALINAPTVSLWAACGSLLRNVLRNPRWLRLFNLLMAALLVLSLAPLLFEKMS”: the protein production result is given as “failed”.
As for “MSLSPSARRVQGALETRGFGHLKVVELPASTRTAKEAAQAVGAEVGQIVKSLVFVGEKGAYLFLVSGKNRLDLGKATRLVGGPLRQATPEEVRELTGFAIGGVPPVGHNTPLPAYLDEDLLGYPEVWAAGGTPRALFRATPKELLALTGAQVADLKEG”, the protein production entry was “not failed”.
For “MSLSRVTEIRYVGYGVKDFDAEKAFYADVWGLEPVGEDANNAWFKAQGADEHHVVQLRRADENRIDVIALAADSRSDVDALRASVEAAGCKVASEPAVLATPGGGYGFRFFSPDGLLFEVSSDVAKGAKRDLARWEGVPVKISHIVLHSPNHQDMVKFFTDVLGFKVSDWLGDFMCFLRCNSAHHRIAILPGPPCLNHVAYDMLSVDDMMRGAHRLKVKGIDIGWGPGRHTAGNNTFSYFVTPGGFVTEYTSELEEVDFDTHQYKVHVPAPMVMDQWGIGTGGPQTLPHPHANPGLFQTAEAEGHHHHHH” the value was “not failed”.
As for “MSLSSPNILLTRIDNRLVHGQVGVTWTSTIGANLLVVVDDVVANDDIQQKLMGITAETYGFGIRFFTIEKTINVIGKAAPHQKIFLICRTPQTVRKLVEGGIDLKDVNVGNMHFSEGKKQISSKVYVDDQDLTDLRFIKQRGVNVFIQDVPGDQKEQIPDEGHHHHHH”, the protein production entry was “not failed”.
Next, “MSLSTGATIVIDLGKTLSKVSLWDLDGRMLDRQVRPSIPLEIDGIRRLDAPDTGRWLLDVLSRYADHPVTTIVPVGHGAGIAALTDGRLAFPPLDYEQSIPEAVMADYRSQRDPFARTGSPALPDGLNIGSQLWWLDQLHPDVMANATLLPWAQYWAWFLTGRAVSEVTSLGCHSDLWDPQDGDFSPMAKRLGWAARFAPIVRAGDTVGALLPAIAERTGLSPDVQVLAGLHDSNAALLAARGFAEIADNEATVLSTGTWFIAMRLPATPVDTATLPEARDCLVNVDVHGRPVPSARFMGGREIETLIEIDTRRVDIKPDQPALLAAVPEVLRHGRMILPTLMRGFGPYPHGRFAWINRPEDWFERRAAACLYAALVADTALDLIGSTGRILVEGRFAEADVFVRALASLRPDCAVYTANAHNDVSFGALRLIDPGLRPQGELVRIEPLDTGSWADLDTYRNRWQAEVEAAKVEEGHHHHHH”: “not failed”; “MSLSTMLVAEDLSAVGGISLSSALPVLTAMQYDVAALPTSLLSTHTSGYGTPAVVDLSTWLPQVFAHWTRAQLHFDQALIGYVGSVALCQQITTYLEQQTLSLLVVDPVLGDLGQLYQGFDQDYVAAMRQLIQQADVILPNTTEAALLTGAPYQVTPDLEVILPALQAQLKTGAHAVITDVQRADQIGCAWLDEAGHVQYCGARRLPGHYNGTGDTLAAVIAGLLGRGYPLAPTLARANQWLNMAVAETIAQNRTDDRQGVALGDLLQAILALNEGHHHHHH”: “not failed”.
On to “MSLSYVLPTLTYSLAASTLGLLQAIPGAFTGFRHTDSDSARGLLLGIFILTVSALLTLAVSAVFWLASFTLFRVLSRYREYAADRGAVAITGDPAALASALATIDDEMAAAPDHDLRAQDGGLDALYIAPIDETQFKDAPDFVANDVFPQTHPPTEARIERLEAMATEGPT”, for which the protein production result is reported as “failed”.
Consider “MSLTASYETIKARLDGTVLSATFNAPPMNLIGPEVVRDLVALLEELAHPTAPRVVIFDSADADFFFPHVDMTKVPEYTAEAAKAGGPGDASLGMLFRKLSQLPAVTIAKLRGRARGAGSEFLLACDMRFASRENAILGQPEVGIGAPPGAGAIQHLTRLLGRGRALEAVLTSSDFDADLAERYGWVNRAVPDAELDEFVAGIAARMSGFPRDALIAAKSAINAISLPAPAEVRADAALFQQLVRGEKVQQRTAELFKQGFQTRGATELDLGDALGHLKAVDEGHHHHHH”, for which the protein production result is reported as “not failed”.
For “MSLTGRAFAIPLRTRFRGITVREGMLVRGAAGWGEFSPFAEYGPRECARWWAACYEAAELGWPAPVRDTVPVNATVPAVGPEEAARIVASSGCTTAKVKVAERGQSEANDVARVEAVRDALGPRGRVRIDVNGAWDVDTAVRMIRLLDRFELEYVEQPCATVDELAEVRRRVSVPIAADESIRRAEDPLRVRDAEAADVVVLKVQPLGGVRAALRLAEECGLPVVVSSAVETSVGLAAGVALAAALPELPYACGLATLRLLHADVCDDPLLPVHGVLPVRRVDVSEQRLAEVEIDPAAWQARLAAARAAWEQVEREPGPEGHHHHHH”, the protein production result was “not failed”.
On to “MSLTIKNSLGQSHDYIKMFVKEGDTVVDATCGNGNDTAFLASLVGENGRVFGFDIQDKAIANTTKKLTDLNLIDRVTLIKDGHQNMDKYIDCPVKAVMFNLGYLPSGDHSISTRPETTIQALSKAMELLVTGGIITVVIYYGGDTGFEEKEKVLEFLKGVDQKKFIVQRTDFINQANCPPILVCIEKISEGHHHHHH”, for which the protein production entry is listed as “not failed”.
With “MSLTINVGLLVDETGPTSDVGKGYSLGAELAFKYFNEKGIYTKDGVRVNINYIKRDYAYNPTTAEEYYREFRDRYGVIAIIGWGTADTEKLSDQVDTDKITYISASYSAKLLVKPFNFYPAPDYSTQACSGLAFLASEFGQGKLALAYDSKVAYSRSPIGAIKKAAPSLGLQVVGDYDLPLRATEADAERIAREMLAADPDYVWCGNTISSCSLLGRAMAKVGLDAFLLTNVWGFDERSPQLIGEGGYGKVFGISPFIYPMFGQDVEGIQTIFEAARMNGVSEDQINLRVVQGFVNVWLLIKAIESVTSQDLQERGGEALKEALEANTFDLGGITADTIDYEPGFHLAYRKVFIIKLGENGELQLMGKFEAPSQVDCARYTIEEGHHHHHH”, the protein production result was “not failed”.
Consider “MSLTLYQKKSKMIGIIIPDLNNRFYAQIIDGIQEVIQKEGYTALISFSTNSDVKKYQNAIINFENNNVDGIITSAFTIPPNFHLNTPLVMYDSANINDDIVRIVSNNTKGGKESIKLLSKKIEKVLIQHWPLSLPTIRERIEAMTAEASKLKIDYLLEETPENNPYISAQSALNKSNQFDAIITVNDLYAAEIIKEAKRRNLKIPDDFQLVGYDNNILCGYTSPTISTIDQNPKLIGQTAAHRLLDLMSGNNSTRNSIIDVLPIKRDSTEGHHHHHH”, for which the protein production result was “not failed”.
